Consider five molecules from patent publication US20260152571A1.

The target in experiment [1] is HLA-A2 on T2 cells without added peptide (human). Put plainly: flow cytometry, T2 cells without peptide, antibody 10 µg/mL.
For experiment [2], the target named is PIGQ/HLA complex on PIGQ-pulsed T2 cells (human). As to the kind of experiment: flow cytometry, T2 cells pulsed with 25 µM PIGQ peptide, antibody 10 µg/mL. In general terms: A flow cytometer gives signals particle by particle.
In experiment [3] the target is MED13L/HLA complex on MED13L-pulsed T2 cells (human). As to the kind of experiment: flow cytometry, T2 cells pulsed with 25 µM MED13L peptide, antibody 10 µg/mL.

B1: P01264-IgG1-SI (antibody, V domains shown)
VH: EVQLVESGGGLVKPGGSLRLSCAASGFTFSNAWMNWVRQAPGKGLEWVGRIKSKTDGGTTDYAAPVKGRFTISRHDSKNTLYLQMNSLKTEDTAVYYCATDPRIAVTGTDYYYGMDVWGQGTTVTVSS
VL: DIVMTQTPSFLSASVGDRVTITCRASQDISNYLNWYQQKPGKAPKLLIYDASNLETGVPSRFSGSGSGTDFTFTISSLQPEDIATYYCQQYDNLPITFGQGTRLEIK
For the molecule B1, the Percentage of Positive Cells (%) in experiment [1] stood at 4.65%; in experiment [2], 4.93%; in experiment [3], 5.87%.

B2: 1G7-IgG1-SI (antibody, V domains shown)
VH: QVQLVESGGGVVRPGGSLRLSCTASGFTFDDYGMTWVRQAPGKGLEWVSGINWNGGSTGYADSVKGRFTISRDNAKNSLFLQMNSLRAEDTALYYCARDQGIAVVGTHYYYYYGMDVWGQGTAVTVSS
VL: EIVLTQSPATLSLSPGERATLSCRASQSFSSYLAWYQQKPGQAPRLLIFDTSNRATGIPARFSGSGSGTDFTLTISSLEPEDFAVYYCQQRSNWPLTFGGGTKVEIK
Take B2: the Percentage of Positive Cells (%) was found to be 5.32% in experiment [1], 5.12% in experiment [2] and 5.12% in experiment [3].

B3: 3A6-IgG1-SI (antibody, V domains shown)
VH: QVQLQESGPGMVKPSETLSLTCTVSGGSISYNYWSWIRQPPGKGLEWIGYIYHSGTTKYNPSLKSRVTMSVDTSKNHFSLKLNSVTAADTAVYYCARHEDYWFFDLWGRGTLVTVSS
VL: DIQMTQSPSSLSASVGDRVTITCRASQGISNYLVWFQQKPGKAPKSLIYAASILQSGVPSKFSGSGSGTDFTLTINSLQPEDFATYYCQQYNTYPFTFGPGTKVDIK
On to B3, for which the Percentage of Positive Cells (%) in experiment [1] worked out at 5.77%; in experiment [2] it was 5.2%; in experiment [3], 5.72%.

B4: 7B9-IgG1-SI (antibody, V domains shown)
VH: EVQLVESGGGVVQPGGSLRLSCAASGFTFDDYAMHWVRQAPGKGLEWVSLISGDDGSTYYADSMKGRITISRDNSKNSLYLQMNSLRTEDTAMYYCAKASYGSGSYLYNYGMDVWGQGTTVTVFS
VL: DIQLTQSPSSLSASVGDRVTITCQASQDIINYLNWYQQKPGKAPKLLIYDTSNLETGVPSRFSGSGSGTDFAFTINSLQPEDIATYYCQQFVNLPLTFGGGTKVEIK
Take B4: the Percentage of Positive Cells (%) came to 4.66% in experiment [1], 5.13% in experiment [2] and 7.68% in experiment [3].

B5: 4F10-IgG1-SI (antibody, V domains shown)
VH: QVQLQESGPGLVKPSETLSLTCTVSGGSISNYYWSWIRQPPGKGLEWIGYIYYSGSTNYNPSLKSRVNISVDTSKSQVSLKLNSVIAADTAVYYCARHEDYWYFDLWGRGTLVTVSS
VL: DIQLTQSPSSLSASIRDRVTITCRASQDINNYLAWFQQKPGKAPKSLIYAVSSLESGVPSKFSGSGSGTDFTLTISSLQPEDFATYFCQQYNSYPFTFGPGTKVEIK
On to B5, for which the Percentage of Positive Cells (%) in experiment [1] was found to be 7.67%; in experiment [2] it was 7.37%; in experiment [3], 13.1%.
